According to US20220306758A1:
One block for each binder: values may come before it.

Target: monkey BCMA-MMH (monkey BCMA with C-terminal myc-myc-hexahistidine tag) (monkey)
Test: SPR, Biacore, mAb captured by anti-hFc, 25 C

Chain of monkey BCMA-MMH (monkey BCMA with C-terminal myc-myc-hexahistidine tag) (monkey) (chain, as listed by the source limits assumed): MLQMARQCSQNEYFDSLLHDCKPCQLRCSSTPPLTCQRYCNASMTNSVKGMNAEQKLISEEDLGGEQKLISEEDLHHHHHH

90 nM mfBCMA.mmh Bind (RU): 1.9 RU
B1: mAb16747 (REGN4515) (antibody, V domains shown)
VH: QVQLVESGGGLVKPGGSLRLSCAASGFTFSDYYISWIRQAPGKGLEWVSYISSSGSSIKYADSVKGRFTISRDNAKNSLYLQMNSLRAEDTAVYYCAREGGNYGMDVWGQGTTVTVSS
VL: DIQMTQSPSSVSASVGDRVTITCRASQGINNWLVWYQQKPGKAPKLLIYAATSLQSGVPSRFSGSGSGTDFTLTISSLQPEDFATYYCQQANSFPPTFGQGTKLEIK

90 nM mfBCMA.mmh Bind (RU): 1.1 RU
B2: mAb16732 (REGN4514) (antibody, V domains shown)
VH: EVQLVESGGGLVQPGRSLRLSCAASGFTFDDYAMHWVRQAPGKGLEWVSGISWNSGNMGYADSVKGRFTISRDNAKNSLFLQMHSLRAEDTAFYYCAKVRLTAFDFWGQGTLVTVSS
VL: DIQMTQSPSSLSASVGDRVTITCRTSQSIGNYLNWFQQKPGKAPKLLIYTASSLQNGVPSRFTGSGSGTDFTLTISSLQPEDFVIYYCQQSFSTPYTFGQGTKLEIK
